Data on one molecule can be found in patent US20190062438A1 (CSL, published 2019).

Positions count from the first letter of the chain named.

For one test, the target named is T1, shCD131 H42A (human, UniProt P32927 17-438).
T1 construct: C-terminal 6xHis
T1 sequence: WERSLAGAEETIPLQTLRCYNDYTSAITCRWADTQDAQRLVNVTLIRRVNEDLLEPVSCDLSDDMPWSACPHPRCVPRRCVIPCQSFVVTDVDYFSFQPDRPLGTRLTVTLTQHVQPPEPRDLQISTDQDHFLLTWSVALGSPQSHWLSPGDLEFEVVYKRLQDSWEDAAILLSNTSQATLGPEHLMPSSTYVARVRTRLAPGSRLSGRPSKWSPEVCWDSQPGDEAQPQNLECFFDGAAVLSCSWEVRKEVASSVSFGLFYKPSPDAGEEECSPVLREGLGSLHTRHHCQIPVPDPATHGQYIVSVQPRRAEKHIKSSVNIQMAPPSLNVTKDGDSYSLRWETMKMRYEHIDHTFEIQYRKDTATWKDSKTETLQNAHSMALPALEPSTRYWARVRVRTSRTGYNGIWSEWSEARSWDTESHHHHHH
The test can be described thus: SPR, kinetics, Fab over captured mutant. (Surface plasmon resonance follows binding to a sensor surface in real time, without labels.)

A further test addresses T2, shCD131 N422A (human, UniProt P32927 17-438).
T2 construct: C-terminal 6xHis
T2 sequence: T1 sequence with A26H, N406A
Nature of the test: SPR, kinetics, Fab over captured mutant.

The next test concerns the target T3, shCD131 G420A (human, UniProt P32927 17-438).
T3 construct: C-terminal 6xHis
T3 sequence: T1 sequence with A26H, G404A
The test can be described thus: SPR, kinetics, Fab over captured mutant.

In test [1] the target is shCD131 alanine mutants of Ser102, Val104 and Arg364. The test can be described thus: SPR, Fab over captured mutant.

B1: 9A2 Fab (Fab, V domains shown)
VH: EVQLLESGGGLVQPGGSLRLSCAASGFTFSHYHMLWVRQAPGKGLEWVSSIRSSGGFTYYADSVKGRFTISRDNSKNTLYLQMNSLRAEDTAVYYCARFYDSFFDIWGQGTMVTVSS
VL: DIQMTQSPSSVSASVGDRVTITCRASQGISSWLAWYQQKPGKAPKLLIYAASSLQSGVPSRFSGSGSGTDFTLTISSLQPEDFATYYCQQANSFPITFGQGTRLEIKR
notes: also called recombinant Fab of 9A2
As usually defined, the Kd is a measure of binding affinity in units of concentration. B1: the Kd in the test with shCD131 H42A was 41 nM; with shCD131 N422A, 54 nM; in the test with shCD131 G420A it was 63 nM. The molecule further had a fold reduction of binding relative to WT shCD131 in test [1] of 3 to 7 fold.
